Assay results from doi:10.1101/2021.01.21.427698.

Molecular target: T1, human SEPT2 with a TEV-cleavable N-terminal His6-tag (human), Q15019
T1 chain: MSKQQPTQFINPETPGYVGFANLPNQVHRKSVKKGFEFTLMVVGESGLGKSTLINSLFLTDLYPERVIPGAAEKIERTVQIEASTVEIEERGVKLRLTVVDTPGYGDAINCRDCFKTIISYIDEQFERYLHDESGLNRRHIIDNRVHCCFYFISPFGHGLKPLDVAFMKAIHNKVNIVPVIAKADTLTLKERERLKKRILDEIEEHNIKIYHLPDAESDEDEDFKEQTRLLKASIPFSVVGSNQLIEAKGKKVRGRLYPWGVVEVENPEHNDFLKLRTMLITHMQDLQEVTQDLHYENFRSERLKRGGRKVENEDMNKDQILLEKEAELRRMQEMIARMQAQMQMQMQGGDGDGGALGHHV
Conditions: remark: other sources report otherwise

stoichiometry N: 1
B1: full-length human SEPT7 (untagged, as in the octamers), Q16181 1-437 (natural protein)
chain: MSVSARSAAAEERSVNSSTMVAQQKNLEGYVGFANLPNQVYRKSVKRGFEFTLMVVGESGLGKSTLINSLFLTDLYSPEYPGPSHRIKKTVQVEQSKVLIKEGGVQLLLTIVDTPGFGDAVDNSNCWQPVIDYIDSKFEDYLNAESRVNRRQMPDNRVQCCLYFIAPSGHGLKPLDIEFMKRLHEKVNIIPLIAKADTLTPEECQQFKKQIMKEIQEHKIKIYEFPETDDEEENKLVKKIKDRLPLAVVGSNTIIEVNGKRVRGRQYPWGVAEVENGEHCDFTILRNMLIRTHMQDLKDVTNNVHYENYRSRKLAAVTYNGVDNNKNKGQLTKSPLAQMEEERREHVAKMKKMEMEMEQVFEMKVKEKVQKLKDSEAELQRRHEQMKKNLEAQHKELEEKRRQFEDEKANWEAQQRILEQQNSSRTLEKNKKKGKIF
